Measured values from article PMC5027287, “Real-time observation of DNA recognition and rejection by the RNA-guided endonuclease Cas9”.

How the values were obtained:
Cas9 (SpCas9) [1] = biological target: T1, Cas9 (SpCas9) (Streptococcus pyogenes, UniProt Q99ZW2 1-1368); assay: smFRET; 20 nM Cas9-RNA; koff <0.006 s-1, lifetime >3 min (photobleaching limit); Immobilized biotin/Cy3 DNA, 20 nM Cas9-RNA (Cy5 crRNA), 0.1 s frames; imaging buffer, pH and temperature not in the material; kon ~6e6 M-1 s-1; details: protein: recombinant, tags: His10-MBP removed by TEV, label: Cy3 (DNA), biotin (DNA), DNA duplex 1:2, 5' overhang 2 nt on strand 1, crRNA 3 : tracrRNA 4, guide pairs strand 2
Cas9 (SpCas9) [2] = biological target: T1, Cas9 (SpCas9); assay: smFRET; 20 nM; bound fraction as cognate; Immobilized biotin/Cy3 DNA, 20 nM Cas9-RNA (Cy5 crRNA), 0.1 s frames; imaging buffer, pH and temperature not in the material; kon ~6e6 M-1 s-1; details: protein: recombinant, tags: His10-MBP removed by TEV, label: Cy3, biotin, as N1
Cas9 (SpCas9) [3] = biological target: T1, Cas9 (SpCas9); assay: smFRET; 20 nM; bound fraction as cognate; bound lifetime ~16 s; Immobilized biotin/Cy3 DNA, 20 nM Cas9-RNA (Cy5 crRNA), 0.1 s frames; imaging buffer, pH and temperature not in the material; kon ~6e6 M-1 s-1; details: protein: recombinant, tags: His10-MBP removed by TEV, label: Cy3, biotin, as N1

T1 sequence (Q99ZW2 whole entry): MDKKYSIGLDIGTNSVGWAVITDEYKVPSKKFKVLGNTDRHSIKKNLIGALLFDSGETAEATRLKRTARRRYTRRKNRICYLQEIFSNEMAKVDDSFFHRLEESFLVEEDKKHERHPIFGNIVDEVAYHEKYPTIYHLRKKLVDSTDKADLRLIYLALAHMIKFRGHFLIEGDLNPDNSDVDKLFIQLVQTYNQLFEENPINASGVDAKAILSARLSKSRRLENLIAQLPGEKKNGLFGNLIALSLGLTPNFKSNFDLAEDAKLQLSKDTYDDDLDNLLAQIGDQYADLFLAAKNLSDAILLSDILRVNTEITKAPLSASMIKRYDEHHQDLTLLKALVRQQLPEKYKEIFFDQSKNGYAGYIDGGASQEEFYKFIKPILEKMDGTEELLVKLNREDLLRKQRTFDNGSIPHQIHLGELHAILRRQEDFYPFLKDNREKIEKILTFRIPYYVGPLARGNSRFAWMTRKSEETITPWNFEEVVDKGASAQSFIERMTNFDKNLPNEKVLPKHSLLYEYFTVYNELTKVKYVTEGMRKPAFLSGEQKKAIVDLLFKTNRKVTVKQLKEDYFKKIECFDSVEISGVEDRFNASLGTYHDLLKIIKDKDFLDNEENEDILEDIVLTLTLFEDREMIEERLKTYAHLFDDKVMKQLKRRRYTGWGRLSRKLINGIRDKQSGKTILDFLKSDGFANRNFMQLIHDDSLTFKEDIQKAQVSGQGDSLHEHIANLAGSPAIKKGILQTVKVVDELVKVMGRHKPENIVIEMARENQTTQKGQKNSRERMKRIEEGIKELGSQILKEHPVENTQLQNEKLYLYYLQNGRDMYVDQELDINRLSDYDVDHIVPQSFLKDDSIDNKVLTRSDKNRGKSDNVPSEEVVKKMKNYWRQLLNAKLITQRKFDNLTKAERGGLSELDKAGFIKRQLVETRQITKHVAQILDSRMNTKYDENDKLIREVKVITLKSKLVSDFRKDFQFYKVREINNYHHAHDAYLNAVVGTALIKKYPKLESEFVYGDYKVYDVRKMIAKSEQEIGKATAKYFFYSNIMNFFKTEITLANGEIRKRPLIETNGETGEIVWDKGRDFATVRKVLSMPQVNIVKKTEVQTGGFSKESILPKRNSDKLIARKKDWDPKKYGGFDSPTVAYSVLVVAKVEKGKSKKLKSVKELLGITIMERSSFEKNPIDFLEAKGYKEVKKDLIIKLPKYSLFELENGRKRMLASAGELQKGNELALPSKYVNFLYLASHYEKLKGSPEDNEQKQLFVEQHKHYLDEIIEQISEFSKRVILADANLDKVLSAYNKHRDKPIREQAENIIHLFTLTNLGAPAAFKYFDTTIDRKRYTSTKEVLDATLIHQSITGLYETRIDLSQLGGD

Binder	binding result (Cas9 (SpCas9) [2])	also measured
Cognate DNA + guide RNA (mixed) DNA 1: AACGCAACGTCGTCAGCTGTCTGCACAGCAGAAATCTCTGCTGACGCATAAAGATGAGACGCTGGAGTACAAACGTCAGCTTGCT DNA 2: AGCAAGCTGACGTTTGTACTCCAGCGTCTCATCTTTATGCGTCAGCAGAGATTTCTGCTGTGCAGACAGCTGACGACGTTGCG RNA 1: GACGCAUAAAGAUGAGACGCGUUUUAGAGCUAUGCUGUUUUG RNA 2: GGACAGCAUAGCAAGUUAAAAUAAGGCUAGUCCGUUAUCAACUUGAAAAAGUGGCACCGAGUCGGUGCUUUUU	–	binding result (Cas9 (SpCas9) [1]): binds
17-20mm (mixed) DNA 1: AACGCAACGTCGTCAGCTGTCTGCACAGCAGAAATCTCTGCTCTGCCATAAAGATGAGACGCTGGAGTACAAACGTCAGCTTGCT DNA 2: AGCAAGCTGACGTTTGTACTCCAGCGTCTCATCTTTATGGCAGAGCAGAGATTTCTGCTGTGCAGACAGCTGACGACGTTGCG RNA 1: GACGCAUAAAGAUGAGACGCGUUUUAGAGCUAUGCUGUUUUG RNA 2: GGACAGCAUAGCAAGUUAAAAUAAGGCUAGUCCGUUAUCAACUUGAAAAAGUGGCACCGAGUCGGUGCUUUUU	binds	–
13-20mm (mixed) DNA 1: AACGCAACGTCGTCAGCTGTCTGCACAGCAGAAATCTCTGCTCTGCGTATAAGATGAGACGCTGGAGTACAAACGTCAGCTTGCT DNA 2: AGCAAGCTGACGTTTGTACTCCAGCGTCTCATCTTATACGCAGAGCAGAGATTTCTGCTGTGCAGACAGCTGACGACGTTGCG RNA 1: GACGCAUAAAGAUGAGACGCGUUUUAGAGCUAUGCUGUUUUG RNA 2: GGACAGCAUAGCAAGUUAAAAUAAGGCUAGUCCGUUAUCAACUUGAAAAAGUGGCACCGAGUCGGUGCUUUUU	binds	–
12-20mm (mixed) DNA 1: AACGCAACGTCGTCAGCTGTCTGCACAGCAGAAATCTCTGCTCTGCGTATTAGATGAGACGCTGGAGTACAAACGTCAGCTTGCT DNA 2: AGCAAGCTGACGTTTGTACTCCAGCGTCTCATCTAATACGCAGAGCAGAGATTTCTGCTGTGCAGACAGCTGACGACGTTGCG RNA 1: GACGCAUAAAGAUGAGACGCGUUUUAGAGCUAUGCUGUUUUG RNA 2: GGACAGCAUAGCAAGUUAAAAUAAGGCUAGUCCGUUAUCAACUUGAAAAAGUGGCACCGAGUCGGUGCUUUUU	binds	–
11-20mm (mixed) DNA 1: AACGCAACGTCGTCAGCTGTCTGCACAGCAGAAATCTCTGCTCTGCGTATTTGATGAGACGCTGGAGTACAAACGTCAGCTTGCT DNA 2: AGCAAGCTGACGTTTGTACTCCAGCGTCTCATCAAATACGCAGAGCAGAGATTTCTGCTGTGCAGACAGCTGACGACGTTGCG RNA 1: GACGCAUAAAGAUGAGACGCGUUUUAGAGCUAUGCUGUUUUG RNA 2: GGACAGCAUAGCAAGUUAAAAUAAGGCUAGUCCGUUAUCAACUUGAAAAAGUGGCACCGAGUCGGUGCUUUUU	binds	–
10-20mm (mixed) DNA 1: AACGCAACGTCGTCAGCTGTCTGCACAGCAGAAATCTCTGCTCTGCGTATTTCATGAGACGCTGGAGTACAAACGTCAGCTTGCT DNA 2: AGCAAGCTGACGTTTGTACTCCAGCGTCTCATGAAATACGCAGAGCAGAGATTTCTGCTGTGCAGACAGCTGACGACGTTGCG RNA 1: GACGCAUAAAGAUGAGACGCGUUUUAGAGCUAUGCUGUUUUG RNA 2: GGACAGCAUAGCAAGUUAAAAUAAGGCUAGUCCGUUAUCAACUUGAAAAAGUGGCACCGAGUCGGUGCUUUUU	binds	–
9-20mm (mixed) DNA 1: AACGCAACGTCGTCAGCTGTCTGCACAGCAGAAATCTCTGCTCTGCGTATTTCTTGAGACGCTGGAGTACAAACGTCAGCTTGCT DNA 2: AGCAAGCTGACGTTTGTACTCCAGCGTCTCAAGAAATACGCAGAGCAGAGATTTCTGCTGTGCAGACAGCTGACGACGTTGCG RNA 1: GACGCAUAAAGAUGAGACGCGUUUUAGAGCUAUGCUGUUUUG RNA 2: GGACAGCAUAGCAAGUUAAAAUAAGGCUAGUCCGUUAUCAACUUGAAAAAGUGGCACCGAGUCGGUGCUUUUU	–	binding result (Cas9 (SpCas9) [3]): binds
